Test results published in US20110144312A1 (Kyowa Kirin, published 2011).

T1: Biotin-SGSTLDLYHSNGYRARVRAVDG-NH2 (human, N-terminal biotin, C-terminal amide (-NH2))
T1 peptide: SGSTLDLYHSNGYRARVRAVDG

T2: Biotin-SGSTYSIFSHFREYEIAIRKV-NH2 (human, N-terminal biotin, C-terminal amide (-NH2))
T2 peptide: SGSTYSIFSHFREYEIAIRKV


Assays:
[1] = target: T1, Biotin-SGSTLDLYHSNGYRARVRAVDG-NH2; assay: ELISA, biotinylated peptide on Extravidin or Neutravidin plates
Description: (§1) Multiple ELISA methods were also employed to detect binding of anti-IL-10Rα antibodies to IL-10Rα, derived peptides. The biotinylated IL-10Rα derived peptides (SEQ ID NO. 86-87) were diluted to 1 μg/ml in TBS/BSA/0.05% Tween 20 and added to Extravidin or Neutravidin pre-coated ELISA plates (Pierce) for 2 hours at room temperature. After washing three times with TBS/BSA/0.05% Tween 20. The purified anti-human IL-10Rα antibodies were diluted in TBS/BSA/0.05% Tween 20 and added to the wells. The plates were incubated for 1 hour at room temperature. The plates were washed 3 times with TBS/0.05% Tween 20 and peroxidase-conjugated goat anti-human IgG (Fcγ specific), anti-rat IgG, or anti-mouse IgG detection antibodies (Jackson Immunoresearch) were added. Following 1 hour incubation at room temperature, the plates were washed and the TMB (Sigma) substrate was added and incubated at room temperature for 5 to 10 minutes. The reaction was stopped with H₂SO₄ (LabChem) and the optical density was measured at 450 nm using a microplate reader. An OD reading above background wells with no primary antibody is indicative of antibody binding to the peptides. […] The antibodies only bound the positive control biotinylated recombinant human IL-10Rα:hFc protein. […] Antibody binding was detected with species-specific anti-IgG-HRP secondary antibodies. […]

[2] = target: T2, Biotin-SGSTYSIFSHFREYEIAIRKV-NH2; assay: as above
Description: as §1

[3] = target: T3, cynomolgus macaque IL-10Rα extracellular domain fused to the Fc portion of human IgG1 (cynomolgus macaque); assay: ELISA, coated cynomolgus IL-10Rα:hFc
T3 construct: The entry includes the signal peptide; also called cynomolgus IL-10Rα:hFc; cyIL-10Rα
Excerpt: Titration of anti-IL-10Rα antibodies binding to coated chimp or cynomolgus IL-10Rα:hFc. Binding was detected with anti-human kappa-HRP, anti-mouse IgG-HRP, or anti-rat IgG-HRP. Different anti-rat-IgG HRP and anti-mouse IgG antibodies were used to generate the data in panels A and B. The nature of these secondary antibodies can affect the results and lead to different maximum binding (BMAX). The BMAX from these studies are described in Table 5.
IL-10Rα Specific Antibody Detection ELISA: Antibody titers, specificity, and production by hybridomas were determined by ELISA. In brief, 96 well flat bottom Maxisorb plates were coated with 50 μl of hIL-10Rα (R&D Systems, Minneapolis, Minn.) at 1 μg/ml in carbonate buffer (pH 9.4) overnight at 4° C. or at 37° C. for 1 hour. After washing three times with PBS/0.05% Tween 20, plates were blocked with Superblock blocking buffer in TBS (Pierce) at room temperature for 30 minutes. The serum, supernatant, or purified antibody was diluted in blocking buffer, added to the wells, and the plates were incubated for 1 hour at room temperature. The plates were washed 3 times with PBS/0.05% Tween 20 and peroxidase-conjugated goat anti-human IgG (Fcγ specific), anti-rat IgG, or anti-mouse IgG detection antibodies (Jackson Immunoresearch) were added at a dilution of 1:5000. Multiple lots of anti-rat and anti-mouse IgG antibodies were used in different assays. […] Following a 1 hour incubation at room temperature, the plates were washed and the TMB (Sigma) substrate was added and incubated at room temperature for 5 to 10 minutes. The reaction was stopped with H₂SO₄ (LabChem) and the optical density was measured at 450 nm by a microplate reader. A second ELISA protocol using soluble human, chimp and cynomolgus IL-10Rα:hFc recombinant proteins as the coating antigens was also employed. In this assay, binding of specific human IgG were detected with a peroxidase labeled sheep anti-human kappa antibody (The Binding Site, Birmingham, UK).

[4] = target: T4, SNP variant S159G of human IL-10Rα extracellular domain fused to the Fc portion of human IgG1 (human); assay: ELISA, coated SNP variant Fc fusion S159G [D]
T4 construct: The entry already holds the change and includes the signal peptide

[5] = target: T5, SNP variant R212E of human IL-10Rα extracellular domain fused to the Fc portion of human IgG1 (human); assay: ELISA, coated SNP variant Fc fusion R212E [E]
T5 construct: The entry already holds the change and includes the signal peptide
T5 sequence (chain, as listed by the source R212E R212E limits assumed): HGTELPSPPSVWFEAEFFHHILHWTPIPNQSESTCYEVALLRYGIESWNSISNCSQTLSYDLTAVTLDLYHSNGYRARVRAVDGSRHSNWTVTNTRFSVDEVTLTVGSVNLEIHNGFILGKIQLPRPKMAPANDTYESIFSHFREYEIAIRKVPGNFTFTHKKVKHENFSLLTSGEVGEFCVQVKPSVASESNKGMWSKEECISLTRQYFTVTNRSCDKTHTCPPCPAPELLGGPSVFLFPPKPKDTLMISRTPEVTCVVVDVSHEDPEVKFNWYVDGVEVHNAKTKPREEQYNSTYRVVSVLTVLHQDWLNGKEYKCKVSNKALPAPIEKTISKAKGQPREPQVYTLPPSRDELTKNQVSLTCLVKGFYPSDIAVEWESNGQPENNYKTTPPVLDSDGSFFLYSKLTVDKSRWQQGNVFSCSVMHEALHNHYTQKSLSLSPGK

[6] = target: T6, SNP variant V113I of human IL-10Rα extracellular domain fused to the Fc portion of human IgG1 (human); assay: ELISA, coated SNP variant Fc fusion V113I [C]
T6 construct: The entry already holds the change and includes the signal peptide; also called V1131

[7] = target: T1, Biotin-SGSTLDLYHSNGYRARVRAVDG-NH2; assay: dot blot on PVDF or nitrocellulose membrane
Description: Methods to detect antibody binding to peptides derived from the human IL-10Rα sequence: Multiple methods were employed to detect binding of anti-human IL-10Rα antibodies to peptides derived from the extracellular domain of human IL-10Rα that have been reported by Reineke, et al. (Reineke, et al., Protein Sci 7:951 (1998)) to be included in the IL-10 binding site of the receptor. The following amide synthesized peptides were tested: Ac-[…]-NH2, Ac-[…]-NH2, Ac-[…]-NH2, Ac-[…]-NH2, Ac-[…]-NH2 (SEQ ID NO. 81-85). In addition, the following biotinylated peptides were tested: Biotin-[…]-NH2, Biotin-[…]-NH2 (SEQ ID NO. 86-87). The amide peptides were synthesized by A&A Labs, LLC (San Diego, Calif.) and the biotinylated peptides were synthesized by GenScript (Piscataway, N.J.) both at >95% purity and reconstituted at 20 mg/ml in DMSO. In one assay design peptides were spotted at 5 μg/spot in PBS onto PVDF membranes or nitrocellulose membranes that had been prepared according to the manufacturer's instructions. The membranes were incubated with anti-IL-10Rα antibodies using standard Western blotting methods (e.g. Towbin, et al., Proc Natl Acad Sci 76:4350 (1979)). Native human IL-10Ra:hFc and heat denatured human IL-10Ra:hFc were also spotted at 1 μg/spot on the membranes as controls. Negative controls included an irrelevant peptide and isotype controls. […] None of the antibodies bound to the spotted denatured protein or to any of the peptides derived from the human IL-10Ra extracellular domain or the irrelevant peptide.

Row | binding result [1] | binding result [2] | BMAX [3] [OD] | binding result [4] | binding result [5] | binding result [6] | binding result [7] | Binder
1 | no binding (tested: 1 µg/ml peptide) | no binding (tested: 1 µg/ml peptide) | 1.64 |  |  |  |  | 136C5 (antibody, V domains shown, Hybridoma antibody, human IgG1, kappa light chain; also called human anti-human IL-10Rα monoclonal antibody 136C5; hybridoma deposit PTA-9131) VH: EVQLVESGGGLVQPGGSLRLSCAASGFTFSSYSMNWVRQAPGKGLEWVSYISTGSSTIYYADSVKGRFTISRDNAKNSLYLQMNSLRDEDTAVYYCARENYYGSGSYEDYFDYWGQGTLVTVSS VL: EIVLTQSPATLSLSPGERATLSCRASQSVSSYLAWYQQKPGQAPRLLIYDASNRATGIPARFSGSGSGTDFTLTISSLEPEDFAVYYCQQRSNWPIFTFGPGTKVDIK
2 |  |  | 1.66 | binds | binds | binds | no binding (tested: 5 µg/spot) | 136C8 (antibody, V domains shown, Hybridoma antibody, human IgG2, kappa light chain; also called human anti-human IL-10Rα monoclonal antibody 136C8; hybridoma deposit PTA-9132) VH: EVQLVESGGGLVQPGGSLRLSCAASGFTFSSYSMNWVRQAPGKGLEWVSYISTRSSTIYYADSVKGRFTISRDNAKNSLYLQMNSLRDEDTAVYYCARENYYGSGSYEDYFDYWGQGTLVTVSS VL: EIVLTQSPATLSLSPGERATLSCRASQSVSSYLAWYQQKPGQAPRLLIYDASNRATGIPARFSGSGSGTDFTLTISSLEPEDFAVYYCQQRSNWPIFTFGPGTKVDIK
